In US20150139990A1 (DAINIPPON SUMITOMO PHARMA, published 2015):

Experiments:
Test in all cases: ELISA
human CD81 mutant D137E = target: T1, human CD81 mutant D137E (human, UniProt P60033 1-236, limits assumed)
T1 construct: as m30; not shown: C-terminal V5 and 6xHis tags
T1 sequence: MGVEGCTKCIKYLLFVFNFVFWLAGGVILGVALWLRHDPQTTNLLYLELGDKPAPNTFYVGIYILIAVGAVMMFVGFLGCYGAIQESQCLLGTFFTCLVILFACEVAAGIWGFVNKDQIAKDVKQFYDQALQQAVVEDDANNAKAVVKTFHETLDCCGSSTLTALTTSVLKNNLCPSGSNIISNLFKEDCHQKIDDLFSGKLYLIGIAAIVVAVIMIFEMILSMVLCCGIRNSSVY
How it was run: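 Human CD81 point mutants in pcDNA-DEST40 with C-terminal V5 and 6×His tags were expressed transiently in CHO cells for 48 hours. Membranes were solubilised with 1% n-octylglucoside and loaded at 5 μg/100 μL/well on Ni-NTA His Sorb plates (3 hours, 4° C). Antibody binding (1 hour, room temperature) was detected with HRP anti-human IgG4, TMB and absorbance at 450 nm. Relative binding affinity is the percentage of wild-type CD81 binding, corrected for V5-tag expression.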

human CD81 mutant A164T = target: T2, human CD81 mutant A164T (human, UniProt P60033 1-236, limits assumed)
T2 construct: as m30; not shown: C-terminal V5 and 6xHis tags
T2 sequence: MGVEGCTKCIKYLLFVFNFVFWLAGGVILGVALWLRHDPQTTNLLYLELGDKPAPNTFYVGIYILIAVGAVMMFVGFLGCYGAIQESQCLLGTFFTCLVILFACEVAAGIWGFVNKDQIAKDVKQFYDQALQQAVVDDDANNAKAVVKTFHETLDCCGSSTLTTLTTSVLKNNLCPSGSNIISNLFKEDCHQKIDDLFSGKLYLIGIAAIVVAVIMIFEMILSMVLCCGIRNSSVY

human CD81 mutant V135A = target: T3, human CD81 mutant V135A (human, UniProt P60033 1-236, limits assumed)
T3 construct: as m30; not shown: C-terminal V5 and 6xHis tags
T3 sequence: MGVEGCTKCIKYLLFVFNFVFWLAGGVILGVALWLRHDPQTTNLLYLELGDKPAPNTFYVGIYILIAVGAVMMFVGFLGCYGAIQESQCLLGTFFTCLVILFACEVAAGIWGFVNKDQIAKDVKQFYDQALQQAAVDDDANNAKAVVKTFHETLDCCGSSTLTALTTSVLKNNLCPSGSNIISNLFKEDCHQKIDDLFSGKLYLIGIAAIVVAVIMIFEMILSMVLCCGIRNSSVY

human CD81 mutant L165A = target: T4, human CD81 mutant L165A (human, UniProt P60033 1-236, limits assumed)
T4 construct: as m30; not shown: C-terminal V5 and 6xHis tags
T4 sequence: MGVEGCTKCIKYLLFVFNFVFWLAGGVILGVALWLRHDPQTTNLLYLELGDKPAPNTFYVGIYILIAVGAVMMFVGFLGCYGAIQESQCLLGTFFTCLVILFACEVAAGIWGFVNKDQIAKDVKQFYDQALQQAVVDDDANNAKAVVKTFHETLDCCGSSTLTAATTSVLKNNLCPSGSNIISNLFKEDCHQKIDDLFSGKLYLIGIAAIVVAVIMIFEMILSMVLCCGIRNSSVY

human CD81 mutant T163A = target: T5, human CD81 mutant T163A (human, UniProt P60033 1-236, limits assumed)
T5 construct: as m30; not shown: C-terminal V5 and 6xHis tags
T5 sequence: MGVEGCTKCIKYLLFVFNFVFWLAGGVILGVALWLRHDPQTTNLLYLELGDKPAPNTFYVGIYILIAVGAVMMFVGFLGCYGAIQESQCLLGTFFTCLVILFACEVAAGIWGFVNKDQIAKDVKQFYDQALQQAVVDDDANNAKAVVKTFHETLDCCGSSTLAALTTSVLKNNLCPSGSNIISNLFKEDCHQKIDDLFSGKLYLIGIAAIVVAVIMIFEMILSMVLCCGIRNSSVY

human CD81 mutant H151A = target: T6, human CD81 mutant H151A (human, UniProt P60033 1-236, limits assumed)
T6 construct: as m30; not shown: C-terminal V5 and 6xHis tags
T6 sequence: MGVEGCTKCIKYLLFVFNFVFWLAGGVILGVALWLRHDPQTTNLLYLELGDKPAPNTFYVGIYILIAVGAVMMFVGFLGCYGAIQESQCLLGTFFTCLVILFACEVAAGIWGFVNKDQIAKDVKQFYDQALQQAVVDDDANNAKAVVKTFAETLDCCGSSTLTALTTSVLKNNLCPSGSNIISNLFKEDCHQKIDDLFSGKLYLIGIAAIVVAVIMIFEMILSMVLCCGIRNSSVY

human CD81 mutant G158S = target: T7, human CD81 mutant G158S (human, UniProt P60033 1-236, limits assumed)
T7 construct: as m30; not shown: C-terminal V5 and 6xHis tags
T7 sequence: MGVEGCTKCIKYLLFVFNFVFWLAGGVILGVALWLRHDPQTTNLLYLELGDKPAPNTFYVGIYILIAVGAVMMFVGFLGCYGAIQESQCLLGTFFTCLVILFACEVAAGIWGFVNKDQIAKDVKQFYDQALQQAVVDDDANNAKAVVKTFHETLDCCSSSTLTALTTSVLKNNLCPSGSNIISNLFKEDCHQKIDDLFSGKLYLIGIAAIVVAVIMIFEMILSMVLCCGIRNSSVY

human CD81 mutant D137A = target: T8, human CD81 mutant D137A (human, UniProt P60033 1-236, limits assumed)
T8 construct: as m30; not shown: C-terminal V5 and 6xHis tags
T8 sequence: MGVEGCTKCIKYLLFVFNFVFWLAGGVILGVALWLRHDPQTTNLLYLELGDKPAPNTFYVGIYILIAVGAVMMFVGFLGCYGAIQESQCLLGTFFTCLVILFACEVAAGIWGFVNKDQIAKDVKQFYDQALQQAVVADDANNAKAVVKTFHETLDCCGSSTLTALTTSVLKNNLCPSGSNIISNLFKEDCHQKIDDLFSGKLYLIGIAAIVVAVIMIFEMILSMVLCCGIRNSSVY

human CD81 mutant L170A = target: T9, human CD81 mutant L170A (human, UniProt P60033 1-236, limits assumed)
T9 construct: as m30; not shown: C-terminal V5 and 6xHis tags
T9 sequence: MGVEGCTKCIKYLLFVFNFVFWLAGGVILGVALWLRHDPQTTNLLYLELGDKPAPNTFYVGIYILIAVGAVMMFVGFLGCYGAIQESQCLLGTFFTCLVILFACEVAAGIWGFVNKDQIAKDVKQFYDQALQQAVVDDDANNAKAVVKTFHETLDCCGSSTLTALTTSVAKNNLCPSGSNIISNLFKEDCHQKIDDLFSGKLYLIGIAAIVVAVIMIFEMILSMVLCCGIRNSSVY

Measured: relative binding affinity

B1: 002-A07 IgG4 antibody (antibody)
heavy: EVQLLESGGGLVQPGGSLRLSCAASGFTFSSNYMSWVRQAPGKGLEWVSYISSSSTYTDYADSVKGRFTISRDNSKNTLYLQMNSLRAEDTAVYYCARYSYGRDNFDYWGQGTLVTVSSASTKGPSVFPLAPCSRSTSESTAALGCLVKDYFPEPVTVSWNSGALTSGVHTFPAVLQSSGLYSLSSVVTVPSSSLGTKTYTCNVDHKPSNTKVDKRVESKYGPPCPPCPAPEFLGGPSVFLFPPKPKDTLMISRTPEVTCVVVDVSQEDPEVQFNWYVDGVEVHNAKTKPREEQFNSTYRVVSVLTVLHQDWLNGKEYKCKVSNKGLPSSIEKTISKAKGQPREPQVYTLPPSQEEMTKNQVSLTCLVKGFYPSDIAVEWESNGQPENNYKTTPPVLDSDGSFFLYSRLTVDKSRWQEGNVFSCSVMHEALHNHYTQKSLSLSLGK
light: QSVLTQPPSASGTPGQRVTISCTGSTSNIGAGYDTHWYQQLPGTAPKLLIYGNSNRPSGVPDRFSGSKSGTSASLAISGLRSEDEADYYCQSYDTNLSVWVFGGGTKLTVLGQPKAAPSVTLFPPSSEELQANKATLVCLISDFYPGAVTVAWKADSSPVKAGVETTTPSKQSNNKYAASSYLSLTPEQWKSHRSYSCQVTHEGSTVEKTVAPTECS
notes: human IgG4 S228P, lambda light chain
not listed: human CD81 mutant L170A
< 20%: all other assays above

B2: 002-A07 N113G (antibody, human IgG4 S228P, lambda, V domains shown)
VH: EVQLLESGGGLVQPGGSLRLSCAASGFTFSSNYMSWVRQAPGKGLEWVSYISSSSTYTDYADSVKGRFTISRDNSKNTLYLQMNSLRAEDTAVYYCARYSYGRDNFDYWGQGTLVTVSS
VL: QSVLTQPPSASGTPGQRVTISCTGSTSNIGAGYDTHWYQQLPGTAPKLLIYGNSNRPSGVPDRFSGSKSGTSASLAISGLRSEDEADYYCQSYDTGLSVWVFGGGTKLTVLG
notes: IgG4 S228P; glycosylation site mutant of 002-A07 VL
not listed: human CD81 mutant D137E
< 20%: all other assays above

B3: 002-A07 N113Q (antibody, human IgG4 S228P, lambda, V domains shown)
VH: EVQLLESGGGLVQPGGSLRLSCAASGFTFSSNYMSWVRQAPGKGLEWVSYISSSSTYTDYADSVKGRFTISRDNSKNTLYLQMNSLRAEDTAVYYCARYSYGRDNFDYWGQGTLVTVSS
VL: QSVLTQPPSASGTPGQRVTISCTGSTSNIGAGYDTHWYQQLPGTAPKLLIYGNSNRPSGVPDRFSGSKSGTSASLAISGLRSEDEADYYCQSYDTQLSVWVFGGGTKLTVLG
notes: as for B2
not listed: human CD81 mutant D137E | human CD81 mutant L170A
< 20%: all other assays above

B4: 002-A07 N113S (antibody, human IgG4 S228P, lambda, V domains shown)
VH: EVQLLESGGGLVQPGGSLRLSCAASGFTFSSNYMSWVRQAPGKGLEWVSYISSSSTYTDYADSVKGRFTISRDNSKNTLYLQMNSLRAEDTAVYYCARYSYGRDNFDYWGQGTLVTVSS
VL: QSVLTQPPSASGTPGQRVTISCTGSTSNIGAGYDTHWYQQLPGTAPKLLIYGNSNRPSGVPDRFSGSKSGTSASLAISGLRSEDEADYYCQSYDTSLSVWVFGGGTKLTVLG
notes: as for B2
not listed: human CD81 mutant D137E
< 20%: all other assays above

B5: 002-A07 S115A (antibody, human IgG4 S228P, lambda, V domains shown)
VH: EVQLLESGGGLVQPGGSLRLSCAASGFTFSSNYMSWVRQAPGKGLEWVSYISSSSTYTDYADSVKGRFTISRDNSKNTLYLQMNSLRAEDTAVYYCARYSYGRDNFDYWGQGTLVTVSS
VL: QSVLTQPPSASGTPGQRVTISCTGSTSNIGAGYDTHWYQQLPGTAPKLLIYGNSNRPSGVPDRFSGSKSGTSASLAISGLRSEDEADYYCQSYDTNLAVWVFGGGTKLTVLG
notes: as for B2
not listed: human CD81 mutant D137E
< 20%: all other assays above

B6: 002-A07 S115G (antibody, human IgG4 S228P, lambda, V domains shown)
VH: EVQLLESGGGLVQPGGSLRLSCAASGFTFSSNYMSWVRQAPGKGLEWVSYISSSSTYTDYADSVKGRFTISRDNSKNTLYLQMNSLRAEDTAVYYCARYSYGRDNFDYWGQGTLVTVSS
VL: QSVLTQPPSASGTPGQRVTISCTGSTSNIGAGYDTHWYQQLPGTAPKLLIYGNSNRPSGVPDRFSGSKSGTSASLAISGLRSEDEADYYCQSYDTNLGVWVFGGGTKLTVLG
notes: as for B2
not listed: human CD81 mutant D137E | human CD81 mutant H151A | human CD81 mutant L170A
< 20%: all other assays above

B7: 003-D07 (antibody, human IgG4 S228P, lambda, V domains shown)
VH: EVQLLESGGGLVQPGGSLRLSCAASGFTFSSNYMSWVRQAPGKGLEWVSYISSSSTYTDYADSVKGRFTISRDNSKNTLYLQMNSLRAEDTAVYYCARYSYDRDNFDYWGQGTLVTVSS
VL: QSVLTQPFSASGTPGQRVTISCTGSTSNIGAGYDTHWYQHLPGTAPKLLIYGNSNRPSGVPDRFSGSKSGTSASLAISGLRSEDEADYYCQSYDTNLSVWVFGGGTKLTVLG
notes: IgG4 S228P
< 20%: human CD81 mutant A164T | human CD81 mutant V135A | human CD81 mutant L165A | human CD81 mutant G158S | human CD81 mutant D137A
